# Target: recombinant biotinylated HIP1 protein (UniProt O00291)
# Experiment: SPR
# UniProt O00291, sequence (O00291 whole entry): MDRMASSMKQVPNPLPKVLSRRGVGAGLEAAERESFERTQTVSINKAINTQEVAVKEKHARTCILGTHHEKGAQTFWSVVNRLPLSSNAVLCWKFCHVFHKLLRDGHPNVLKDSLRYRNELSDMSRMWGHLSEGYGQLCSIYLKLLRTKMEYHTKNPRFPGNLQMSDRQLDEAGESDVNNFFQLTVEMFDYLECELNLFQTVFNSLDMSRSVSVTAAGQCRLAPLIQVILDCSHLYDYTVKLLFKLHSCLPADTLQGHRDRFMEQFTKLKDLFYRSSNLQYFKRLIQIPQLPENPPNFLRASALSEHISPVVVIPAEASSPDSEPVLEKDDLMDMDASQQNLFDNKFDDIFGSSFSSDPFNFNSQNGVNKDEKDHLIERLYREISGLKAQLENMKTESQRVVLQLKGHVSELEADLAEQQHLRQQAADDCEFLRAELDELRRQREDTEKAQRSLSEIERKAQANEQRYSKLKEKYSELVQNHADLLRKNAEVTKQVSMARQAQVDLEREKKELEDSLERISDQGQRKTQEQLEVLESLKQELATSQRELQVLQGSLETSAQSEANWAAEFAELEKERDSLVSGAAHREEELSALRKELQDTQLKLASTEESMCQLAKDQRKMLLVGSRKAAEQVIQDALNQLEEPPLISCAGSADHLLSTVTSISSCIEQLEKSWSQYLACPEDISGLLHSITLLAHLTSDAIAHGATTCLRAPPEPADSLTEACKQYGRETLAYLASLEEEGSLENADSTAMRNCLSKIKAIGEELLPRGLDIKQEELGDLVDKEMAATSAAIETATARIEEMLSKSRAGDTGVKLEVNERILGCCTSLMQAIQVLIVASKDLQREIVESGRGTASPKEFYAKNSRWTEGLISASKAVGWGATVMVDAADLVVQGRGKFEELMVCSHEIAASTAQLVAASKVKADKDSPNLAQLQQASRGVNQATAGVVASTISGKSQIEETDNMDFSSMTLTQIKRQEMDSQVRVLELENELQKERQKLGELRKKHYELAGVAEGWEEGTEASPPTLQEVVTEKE
row,Substance,Kd [µM]
1,mono Ub (SPR analyte) (from UniProt P0CG48 1-76) (natural protein),197
2,K48-linked Ub3 (SPR analyte) (from UniProt P0CG48),66.2
3,K48-linked Ub2 (SPR analyte) (from UniProt P0CG48),137
4,K63-linked Ub2 (SPR analyte) (from UniProt P0CG48),1.89

# Stronger by Kd, values ahead:
row,Kd [µM],Substance
1,0.07,K48/K63-linked branched Ub3 (SPR analyte) (from UniProt P0CG48)
2,1.55,K63-linked Ub3 (SPR analyte) (from UniProt P0CG48)

# Source: paper doi:10.1101/2024.01.08.574586
